Test results from patent US20080131423A1 (US Dept. of Health and Human Services, published 2008).
Positions count from the first letter of the chain named.

T1: human TREM-like transcript-1 (TLT-1) (human, UniProt Q86YW5 16-311)
T1 construct: whole, on cells; bands of 35 and 25 kDa; also called hTLT-1; TLT-1 on (HEK)293T transfected cells
T1 sequence (looked up): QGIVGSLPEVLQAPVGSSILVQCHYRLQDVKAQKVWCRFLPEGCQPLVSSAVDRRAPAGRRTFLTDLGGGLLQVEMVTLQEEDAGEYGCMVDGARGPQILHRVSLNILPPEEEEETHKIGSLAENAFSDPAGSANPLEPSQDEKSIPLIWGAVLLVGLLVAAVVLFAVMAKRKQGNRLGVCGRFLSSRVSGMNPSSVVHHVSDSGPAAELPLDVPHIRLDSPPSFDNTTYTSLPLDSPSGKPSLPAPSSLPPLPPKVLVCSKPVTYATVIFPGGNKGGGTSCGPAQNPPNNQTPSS

B1: scFv A7 (scFv)
scFv: MAEVQLLESGGGLVQPGGSLRLSCAASGFTFSSYAMSWVRQAPGKGLEWVSAIGSYGSATAYADSVKGRFTISRDNSKNTLYLQMNSLRAEDTAVYYCAKNGYDFDYWGQGTLVTVSSGGGGSGGGGSGGGGSTDIQMTQSPSSLSASVGDRVTITCRASQSISSYLNWYQQKPGKAPKLLIYNASGLQSGVPSRFSGSGSGTDFTLTISSLQPEDFATYYCQQSAANPSTFGQGTKVEIKRAAAHHHHHHGAAEQKLISEEDLNGAA
notes: Human scFv from the Tomlinson I phage library; Soluble form purified on Protein L; also called GenBank DQ375450
B2: scFv A1 (scFv)
scFv: MAEVQLLESGGGLVQPGGSLRLSCAASGFTFSSYAMSWVRQAPGKGLEWVSGIGTTGYATAYADSVKGRFTISRDNSKNTLYLQMNSLRAEDTAVYYCAKGNSGFDYWGQGTLVTVSSGGGGSGGGGSGGGGSTDIQMTQSPSSLSASVGDRVTITCRASQSISSYLNWYQQKPGKAPKLLIYTASTLQSGVPSRFSGSGSGTDFTLTISSLQPEDFATYYCQQSSTDPGTFGQGTKVEIKRAAAHHHHHHGAAEQKLISEEDLNGAA
notes: Human scFv from the Tomlinson I phage library; Soluble form purified on Protein L; also called GenBank DQ375449
B3: scFv A8 (scFv)
scFv: B2 scFv with A59S, G101T, N102A, S103Y, G104T, T184S, S225N, D228Y, G230A
notes: Human scFv from the Tomlinson I phage library; Soluble form purified on Protein L; also called GenBank DQ375451
B4: scFv D1 (scFv)
scFv: B2 scFv with G52A, G101A, G104Y, T184S, S225D, D228S, G230D
notes: Human scFv from the Tomlinson I phage library; Soluble form purified on Protein L; also called GenBank DQ375454
B5: scFv C10 (scFv)
scFv: MAEVQLLESGGGLVQPGGSLRLSCAASGFTFSSYAMSWVRQAPGKGLEWVSGISSTGGATTYADSVKGRFTISRDNSKNTLYLQMNSLRAEDTAVYYCAKSTYDFDYWGQGTLVTVSSGGGGSGGGGSGGGGSTDIQMTQSPSSLSASVGDRVTITCRASQSISSYLNWYQQKPGKAPKLLIYGASTLQSGVPSRFSGSGSGTDFTLTISSLQPEDFATYYCQQNADAPTTFGQGTKVEIKRAAAHHHHHHGAAEQKLISEEDLNGAA
notes: Human scFv from the Tomlinson I phage library; Soluble form made in E. coli HB2151 and purified on Protein L (28 kDa); also called clone C10
B6: scFv B8 (scFv)
scFv: MAEVQLLESGGGLVQPGGSLRLSCAASGFTFSSYAMSWVRQAPGKGLEWVSNITASGYATAYADSVKGRFTISRDNSKNTLYLQMNSLRAEDTAVYYCAKTTATFDYWGQGTLVTVSSGGGGSGGGGSGGGGSTDIQMTQSPSSLSASVGDRVTITCRASQSISSYLNWYQQKPGKAPKLLIYDASNLQSGVPSRFSGSGSGTDFTLTISSLQPEDFATYYCQQDTASPSTFGQGTKVEIKRAAAHHHHHHGAAEQKLISEEDLNGAA
notes: Human scFv from the Tomlinson I phage library; Soluble form purified on Protein L; also called GenBank DQ375452

These binders were tested against BSA (UniProt P02769 25-607) (assay: phage ELISA, immobilized antigen (data not shown)).
Sequence of BSA (P02769 25-607 limits assumed): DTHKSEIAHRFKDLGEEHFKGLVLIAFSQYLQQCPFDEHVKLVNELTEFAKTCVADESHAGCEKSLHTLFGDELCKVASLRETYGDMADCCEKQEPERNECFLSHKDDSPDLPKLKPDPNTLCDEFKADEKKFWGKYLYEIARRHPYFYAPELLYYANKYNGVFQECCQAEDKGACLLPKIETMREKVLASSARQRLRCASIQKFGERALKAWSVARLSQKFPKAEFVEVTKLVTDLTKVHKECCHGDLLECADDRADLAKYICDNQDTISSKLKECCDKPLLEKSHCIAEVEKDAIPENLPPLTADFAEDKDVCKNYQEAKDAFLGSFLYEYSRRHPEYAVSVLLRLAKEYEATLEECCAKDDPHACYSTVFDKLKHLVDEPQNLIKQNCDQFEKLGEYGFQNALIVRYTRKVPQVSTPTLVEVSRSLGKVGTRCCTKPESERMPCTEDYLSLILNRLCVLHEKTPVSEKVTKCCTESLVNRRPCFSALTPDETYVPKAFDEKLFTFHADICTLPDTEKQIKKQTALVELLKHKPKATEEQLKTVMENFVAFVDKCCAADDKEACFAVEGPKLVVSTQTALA

Question: Does B1 bind?
Answer: Result: no binding

Question: Does B2 bind?
Answer: Result: no binding

Question: Does B3 bind?
Answer: Result: no binding

Question: Does B4 bind?
Answer: Result: no binding

Question: Does B5 bind?
Answer: Result: no binding

Question: Does B6 bind?
Answer: Result: no binding

Each binder was assayed against T1, human TREM-like transcript-1 (TLT-1) (assay: flow cytometry, purified scFv on TLT-1 transfected cells).
Description: For flow cytometric analysis with TLT-1-transfected cells, phage-containing supernatants were prepared from individual colonies as previously described (14). (HEK)293T-TLT-1 transfected cells (2×10⁵ cells) were washed with PBS/1% BSA and incubated with phages (2×10¹⁰ TU) or purified scFv (1 μg/ml). After 1 hr of incubation at 4° C., cells were washed twice with PBS/1% BSA. Phage binding was detected by incubation with mouse anti-M13 monoclonal antibody (Amersham Bioscience, Piscataway, N.J.), followed by incubation with phycoerithrin (PE)-conjugated anti-mouse antibody (Jackson Immunoresearch, West Grove, Pa.). To analyze scFv binding to human platelets, platelets were incubated with 1 μg of purified scFv for 1 hour at 4° C. and washed three times with PBS containing 0.5% sodium azide and 0.5% BSA. ScFv binding was detected using a FITC-conjugated anti-c-myc antibody (Sigma, St Louis, Mo.). TLT-1 expression was detected with a commercial anti-human TLT-1 pAb (R&D Systems, MN) as previously described (10).

Question: Does B1 bind?
Answer: Result: binds

Question: Does B2 bind?
Answer: Result: binds

Question: Does B3 bind?
Answer: Result: binds

Question: Does B4 bind?
Answer: Result: binds
